Source: US20230035798A1 (CAPELLA BIOSCIENCE, published 2023)

T1: recombinant human soluble LIGHT, amino acids 74-240 (R&D Systems 664-LI-025) (human, UniProt O43557 74-240)
T1 chain: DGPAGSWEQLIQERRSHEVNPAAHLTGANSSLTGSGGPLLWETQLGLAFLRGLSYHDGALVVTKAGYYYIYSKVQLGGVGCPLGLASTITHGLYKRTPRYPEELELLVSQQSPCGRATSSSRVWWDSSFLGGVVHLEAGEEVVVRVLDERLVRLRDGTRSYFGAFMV


Key:
[1] = target: T2, human LIGHT (TNFSF14), full length, membrane-bound (214E allele) (human, UniProt O43557 1-240); test: DcR3-His (1 nM) competition, EL4-LIGHT, flow cytometry; 0.41 nM
T2 construct: also called membrane LIGHT; human membrane LIGHT
Procedure: (§1) EL4-LIGHT cells (0.25×10⁶) were preincubated with anti-membrane LIGHT mAbs (0-300 nM) for 15 min at 4° C. followed by incubation with DcR3-His tagged (1 nM, Creative BioMart; ref: TNFRSF6B-552H, lot: 962512) for 30 min at 4° C. The samples were then incubated with mouse anti-histag antibody (diluted 1:500, Biolegend, cat. no. 652502) for 30 minutes at 4° C., followed by incubation with anti-mouse APC (dil 1:500, BDBiosciences, cat. no. 550826) for 30 minutes at 4° C. The tubes were washed three times after each of the detection antibody stages and flow cytometry analysis was performed. Specific mean fluorescence intensity (MFI) obtained from the binding of DcR3-His to LIGHT on EL4 cells were used to determine the levels of competition binding.
(§2) In humans, LIGHT is neutralized by DcR3, a unique soluble member of the TNFR superfamily, which tightly binds LIGHT (both soluble and membrane forms) and inhibits its interactions with HVEM and LTβR. A major binding determinant for DcR3 neutralization is the region T170-E178 on LIGHT (Liu et al. Structure 2014: 9; 1252-1262). […] In contrast the anti-LIGHT mAb F19, (from EP2292663) which binds both soluble LIGHT and membrane LIGHT equally well completely displaces DcR3 from binding to membrane LIGHT highlighting a surprising an important functional difference between the anti-membrane LIGHT mAbs of this invention and other neutralizing anti-LIGHT mAbs that have been raised against or screened against soluble LIGHT.
Target sequence in this assay (O43557 whole entry K214E): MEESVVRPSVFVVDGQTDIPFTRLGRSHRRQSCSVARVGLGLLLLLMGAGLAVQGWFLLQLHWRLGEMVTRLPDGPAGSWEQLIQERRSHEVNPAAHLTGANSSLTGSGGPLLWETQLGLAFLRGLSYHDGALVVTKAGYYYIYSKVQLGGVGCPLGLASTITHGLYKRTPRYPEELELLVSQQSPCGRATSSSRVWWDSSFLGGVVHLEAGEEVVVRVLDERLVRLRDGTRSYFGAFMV

[2] = target: T2, human LIGHT (TNFSF14), full length, …; test: competition with biotin-HVEM:Fc, HEK293FF LIGHT cells, flow cytometry
Procedure: (§3) The ability of the 7 chimeric mAbs to block biotin-HVEM:Fc and biotin-LTβR:Fc fusion proteins to cell surface expressed LIGHT using a flow cytometric based assay is shown in FIGS. 1A and 1B respectively. In these experiments, graded amounts of each antibody were added to the HEK293FF cells transiently transfected with LIGHT with a 50% saturating amount of the receptor fusion protein. As shown, each of the antibodies blocked either receptor fusion protein from binding LIGHT, in contrast to the irrelevant antibody control which had no effect on either Fc-receptor fusion protein binding. In each experiment, all antibodies blocked receptor binding in a dose dependent manner enabling analysis by non-linear regression to determine the IC50 dose as shown in Table 11A.
Target sequence in this assay (O43557 whole entry K214E): as above

[3] = target: T2, human LIGHT (TNFSF14), full length, …; test: competition with biotin-HVEM-Fc, EL4-LIGHT cells, flow cytometry
Procedure: (§4) Biotin-LTβR-Fc and biotin-HVEM-Fc were prepared using a kit purchased from ThermoFisher (EZ-Link NHS-LC-Biotin; cat. no. 21336) according to the manufacturer's instructions. […] The diluent used was FACS buffer. The cells were washed 3 times with FACS buffer and biotin-LTβR-Fc and biotin-HVEM-Fc binding detection to cells was performed with streptavidin-APC (1:400; BioLegend cat. No. 405207) for 30 min at 4° C. and fluorescence read in the RL-1 channel. The anti-HEL mAb 2A11 was utilised as a background control.
(§5) The above experiment was repeated utilising LIGHT stably expressed on EL4-cells and the results depicted in Table 11B.
Target sequence in this assay (O43557 whole entry K214E): as above

[4] = target: T2, human LIGHT (TNFSF14), full length, …; test: DcR3-His (1 nM) competition, EL4-LIGHT, flow cytometry; 1.23 nM
Procedure: as §1, §2
Target sequence in this assay (O43557 whole entry K214E): as above

[5] = target: T2, human LIGHT (TNFSF14), full length, …; test: DcR3-His (1 nM) competition, EL4-LIGHT, flow cytometry; 3.7 nM
Procedure: as §1, §2
Target sequence in this assay (O43557 whole entry K214E): as above

[6] = target: membrane LIGHT without residues 81-84 (EL4-NC-LIGHT cells) (human, UniProt O43557 1-240); test: cell-based or functional assay
[7] = target: T1, recombinant human soluble LIGHT, amino …; test: cell-based or functional assay
[8] = target: T2, human LIGHT (TNFSF14), full length, …; test: DcR3-His (1 nM) competition, EL4-LIGHT, flow cytometry; 11.1 nM
Procedure: as §1, §2

[9] = target: T2, human LIGHT (TNFSF14), full length, …; test: competition with biotin-LTβR-Fc, EL4-LIGHT cells, flow cytometry
Procedure: as §4, §5
Target sequence in this assay (O43557 whole entry K214E): as above

[10] = target: T2, human LIGHT (TNFSF14), full length, …; test: competition with biotin-LTβR:Fc, HEK293FF LIGHT cells, flow cytometry
Procedure: as §3

[11] = target: T2, human LIGHT (TNFSF14), full length, …; test: DcR3-His (1 nM) competition, EL4-LIGHT, flow cytometry; 33.3 nM
Procedure: as §1, §2

[12] = target: T2, human LIGHT (TNFSF14), full length, …; test: flow cytometry, EL4-LIGHT cells
Procedure: The EC50 of the 7 mAbs were calculated from binding to EL4-LIGHT cells (Table 7) which represents a more accurate comparison of the EC50's than utilising transiently transfected LIGHT cells. […] Non-linear regression analysis was performed to determine the functional binding affinity measurement or EC50 for each mAb. A range of functional affinities was observed.

membrane LIGHT without residues 81-84 (EL4-NC-LIGHT cells), sequence (O43557 other isoform, or with tags, fused parts or gaps): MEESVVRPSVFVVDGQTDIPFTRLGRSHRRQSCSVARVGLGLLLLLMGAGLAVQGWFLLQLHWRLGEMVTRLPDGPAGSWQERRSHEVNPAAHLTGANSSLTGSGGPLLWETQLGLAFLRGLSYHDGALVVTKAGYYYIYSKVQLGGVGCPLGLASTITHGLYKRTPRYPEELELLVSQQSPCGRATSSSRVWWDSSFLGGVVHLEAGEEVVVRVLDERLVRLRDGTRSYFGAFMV

Binder | DcR3-His binding, % of irrelevant mAb [1] | IC50 [2] | IC50 [3] | DcR3-His binding, % of irrelevant mAb [4] | DcR3-His binding, % of irrelevant mAb [5] | IC50, inhibition of IL-8 secretion from HT-29 cells (EL4-NC-LIGHT cells) [6] | IC50, nM soluble LIGHT (5 ng/ml; IL-8 release from HT-29 cells) [7] | DcR3-His binding, % of irrelevant mAb [8] | IC50 [9] | IC50 [10] | DcR3-His binding, % of irrelevant mAb [11] | EC50 [12]
3A07 (antibody, human IgG4, V domains shown, chimeric human IgG4 (S-to-P, L-to-E at 248), human CL; also called Parental 3A07) VH: QVQLQQSGAELVRPGAPVTLSCKASDYTFTDSEIHWVKQTPVHGLEWIGEIDPETGGTAYNQKFKGKATLTADKSSSTAYMELRSLTSEDSAVYYCSRETDYFFDYWGQGTTLTVSS VL: ENVLTQSPAIMSASPGEKVTMTCSASSSVSYMYWYQQRPGSSPRLLIYDTSNLASGVPVRFSGSGSGTSYSLTISRMEAEDAATYYCQQWSSYPLTFGSGTKLEIK | 102% | 2.5 nM | 0.32 nM | 90.6% | 89.6% | 2 nM | > 100 nM | 75.8% | 0.35 nM | 1.4 nM | 67.5% | 0.14 nM
3B04 (antibody, human IgG4, V domains shown, chimeric: mouse variable domains on human IgG4 HC (S-to-P and L-to-E at 248) and human CL; also called Parental 3B04; 3B04 chimeric) VH: QVQLQQPGAELVRPGASVTLSCKASGYTFTDYEMHWVKQTPVHGLEWIGEIDPETGDTAYSQKFKGKATLTADKSSSTAYMEFRSLTSEDSAVYYCSRETDYFFDYWGQGTTLTVSS VL: DIQMTQTPASLSASVGETVTITCGASENIYGALNWYQRKQGKSPQLLIYGATNLADGMSSRFSGSGSGRQYSLKISSLHPDDFATYYCQNVLTTPWTFGGGTKLEIKR | 94.8% | 1.2 nM | 0.13 nM | 75.1% | 78.5% | 0.2 nM | 6.5 nM | 78.3% | 0.19 nM | 1.1 nM | 85.1% | 0.15 nM
3D12 (antibody, human IgG4, V domains shown, chimeric: mouse variable domains on human IgG4 HC (S-to-P and L-to-E at 248) and human CL; also called Parental 3D12; 3D12 chimeric) VH: QVQLQQPGAELVRPGASVTLSCKASDYTFTDSEIHWVKQTPVHGLEWIGEIDPETGGTAYNQKFKGKATLTADKSSSTAYMELRSLTSEDSAVYYCSRETDYFFDYWGQGTTLTVSS VL: DIQMTQSPASLSASVGETVTITCGASENIYGALNWYQRKQGKSPQLLIYGATNLADGMSSRFSGSGSGRQYSLKISSLHPDDVATYYCQNVLSTPWTFGGGTKLEIKR | 99.4% | 1 nM | 0.16 nM | 72.8% | 68.6% | 0.1 nM | 3.4 nM | 61.1% | 0.19 nM | 0.6 nM | 78.1% | 0.2 nM
3C10 (antibody, human IgG4, V domains shown, chimeric human IgG4 (S-to-P, L-to-E at 248), human CL; also called Parental 3C10) VH: EVQLQQSGAELVRPGASVTLSCKASDYTFTDSEIHWVKQTPVHGLEWIGEIDPETGGTAYNQKFKGKATLTADKSSSTAYMELRSLTSEDSAVYYCSRETDYFFDYWGQGTTLTVSS VL: DVVMTQTPAIMSASPGEKVTMTCSASSSVSYMYWYQQKPGSSPRLLIYDTSNLASGVPVRFSGSGSGTSYSLTISRMEAEDAATYYCQQWSSYPLTFGAGTKLELK | 124% | 2.1 nM | 0.8 nM | 95.5% | 86.9% | 1.9 nM | > 100 nM | 83.6% | 0.86 nM | 1.9 nM | 81.9% | 0.16 nM
3E09 (antibody, V domains shown, chimeric human IgG4 (S-to-P, L-to-E at 248), human CL; also called Parental 3E09) VH: EVQLVESGGGLVKPGGSLKLSCEASGFTFSDYYMYWVRQTPEKRLEWVAAIGDGGIYTYYADTVKGRFTISRDNAKNILYLQMSSLKSNDTAMYYCARGTGDGFAYWGQGTLVTVS VL: DIVLTQSPASLAVSLGQRATISCRASESVDSYGNSFMHWYQQKPGQPPKLLIYLASNLESGVPARFSGSGSRTDFTLTIDPVEADDAATYYCQQNNEDPYTFGGGTKLEIK | 94.2% | 36.6 nM | 24.1 nM | 66.9% | 80.4% | – | – | 71.1% | 38 nM | 12 nM | 70.5% | 8.1 nM
2E08 (antibody, human IgG4, V domains shown, chimeric human IgG4 (S-to-P, L-to-E at 248), human CL; also called Parental 2E08) VH: QVQMKESGAELVRPGVSVKISCKGSGYTFTDYAIHWVKQSHAKTLEWIGVISTYYGDASYNQKFKGKATMTVDKSSSTAYMELARLTSDDSAIYYCARSRGEYGNYDAMDYWGQGTSVTVSS VL: DIVLTQSPASLAVSLGQRATISCKASQSVDYDGDSYMNWYQQKPGQPPKLLIYAASNLESGIPARFSGSGSGTDFTLNIHPVEEEDAATYYCQQSNEDPLTFGAGTKLELK | 107% | 23.8 nM | 4.3 nM | 118% | 66.1% | 1.8 nM | > 100 nM | 85.7% | 5.7 nM | 14.4 nM | 78.4% | 1.8 nM
2B11 (antibody, human IgG4, V domains shown, chimeric human IgG4 (S-to-P, L-to-E at 248), human CL; also called Parental 2B11) VH: EVQLVESGAELVRPGVSVKISCKGSGYTFTDYAIHWVKQSHAKSLEWIGVISTYYGDASYNQKFKGKATMTVDKSSSTAYMELARLTSEDSAIYYCARSRGEYGNYDAMDYWGQGTSVTVSS VL: DIVLTQSPASLAVSLGQRATISCRASESVDSYGNSFMHWYQQKPGQPPKLLIYRASNLESGIPARFSGSGSRTDFTLTINPVEADDVATYYCQQSNEDPYTFGGGTKLEIK | 114% | 2.9 nM | 0.34 nM | 115% | 78.6% | 0.6 nM | 47 nM | 77.5% | 0.36 nM | 2.1 nM | 79.8% | 0.3 nM
